# Laboratory results: patent publication US20050118229A1, “Implantable drug delivery device for sustained release of therapeutic agent” (iMEDD, Inc., priority 2003, published 2005)
# Legend:
# [1] = Hydration of lysozyme particles through planar microporous membrane (dual sub-chamber device of FIG. 1); assay type: physicochemical
# Excerpt: The data presented in FIG. 3 is illustrative of zero-order hydration of the surrogate molecule lysozyme using the planar version of the microporous membrane shown in FIG. 1. In this experiment, three identical acrylic chambers were used, each chamber including two subchambers separated by a planar microporous membrane. The microporous membrane was a Whatman 1PS Phase Separator having a diameter of […] (area=113 mm^2).
# The lower portion of the chamber (i.e., the lower sub-chamber) was filled with 2.7 milliliters of the water-immiscible solvent, perfluorodecalin. Suspended in this solvent were 20 mg of solid lysozyme particles having an average particle size of 90 micrometers. The range of particle sizes was 75 to 105 micrometers. […] The upper portion of the chamber (i.e., the upper sub-chamber) contained 0.3 milliliters of phosphate buffered saline solution. A stirring bar was placed in the lower sub-chamber of each device to agitate the solvent at ambient temperature during the fifty-two day test period. After thirty-seven days, stirring was stopped to determine whether or not agitation had any effect on the hydration rate. The buffer solution in the upper sub-chamber of each device was removed each day and replaced with a fresh supply of solution. The lysozyme content of the upper sub-chamber samples was analyzed periodically to determine the quantity of lysozyme material that had dissolved in a one-day time period. The daily mass of lysozyme that was present in the upper sub-chamber was added to the sum of the previous days, thus the data in FIG. 3 represents the total mass of hydrated lysozyme.
# The effect of longer release periods is substantially equivalent to determining the release rate with decreasing amounts of lysozyme present in the device enclosure. To determine release variations over longer periods of time, additional planar-membrane, dual-chamber experiments were conducted using different initial amounts of lysozyme loaded, i.e., suspended, in the perfluorodecalin used to fill the lower sub-chamber. […] These average hydration rates are plotted in FIG. 5 as a function of the amount of mass loaded (100%=20 mg).
# [2] = Hydration of lysozyme particles from cylindrical capsule-like microporous membrane packet (FIG. 2); assay type: physicochemical
# Protocol: FIG. 6 provides hydration results for a device utilizing the three-dimensional capsule-like embodiment of the microporous membrane (see FIG. 2). For this experiment, a section of Whatman 1PS Phase Separator membrane was formed into a cylinder and sealed lengthwise and at both ends. The resulting cylinder was 10 mm in length and 4 mm in diameter (125 mm^2 membrane area). The cylinder was filled with approximately 1.4 mg of solid lysozyme having an average particle size of 90 micrometers combined with approximately 125 μl of the water-immiscible solvent perfluorodecalin,
# The particle-filled cylinder described above was placed in a well containing 1.5 milliliters of phosphate buffered saline. A series of 70 μl samples were removed from the well at various time intervals. These samples were analyzed, and the results in FIG. 6 are the summation of mass hydrated as a function of time. Approximately 2.6 μg of lysozyme per day (i.e., 0.021 μg/mm^2) was hydrated after a nine-day delay. This observed rate is a factor of four less than the hydration rate observed in the previously discussed planar membrane experiments; however, because the entire membrane area was not active for the cylinder-shaped membrane, the release per unit area data is in reasonable agreement bwtween the two experiments. Thus, the data shown in FIGS. 4-6 provide a clear indication that the devices shown in FIGS. 1 and 2 are capable of providing the long-term zero-order release desired for an implantable drug-delivery device.
substance,measurement,setting,value
lysozyme,hydration rate relative to its original value,[1]; 2 mg loaded (10% of 20 mg),83%
same,hydration rate,"[1]; 2 mg suspended lysozyme, planar membrane",7.7 micrograms/day
same,hydration rate,"[1]; 5 mg suspended lysozyme, planar membrane",8.9 micrograms/day
same,lysozyme mass hydrated,"[1]; 20 mg loaded, over the fifty-two day testing period",2%
same,initial delay before hydration,"[1]; 20 mg lysozyme loaded, planar membrane",eight to fourteen
same,average hydration rate per membrane area,"[1]; 20 mg lysozyme loaded, planar membrane area 113 mm^2",0.082 ug/day/mm^2
same,average hydration rate,"[1]; 20 mg solid lysozyme particles loaded in perfluorodecalin, planar Whatman 1PS membrane, PBS, ambient temperature, 52 day test",9.3 micrograms per day
same,decrease of hydration rate,[1]; during the time the mass of lysozyme decreases by 80%,4%
same,lysozyme hydrated per day,"[2]; approx. 1.4 mg lysozyme in approx. 125 μl perfluorodecalin, cylinder 125 mm^2 Whatman 1PS, 1.5 ml PBS",Approximately 2.6 μg per day
same,factor by which rate is less than the planar membrane hydration rate,[2]; cylinder versus planar membrane experiments,four
same,delay before hydration,[2]; cylinder-shaped membrane,nine
same,lysozyme hydrated per membrane area,"[2]; cylinder-shaped membrane, 125 mm^2 membrane area",~0.021 μg/mm^2
